Reference: patent US20210260163A1

Target: IL-2Rα (on CTLL2 cells) (UniProt P01590)
Test: cell-based or functional assay

IL-2Rα (on CTLL2 cells), sequence (P01590 22-268 limits assumed): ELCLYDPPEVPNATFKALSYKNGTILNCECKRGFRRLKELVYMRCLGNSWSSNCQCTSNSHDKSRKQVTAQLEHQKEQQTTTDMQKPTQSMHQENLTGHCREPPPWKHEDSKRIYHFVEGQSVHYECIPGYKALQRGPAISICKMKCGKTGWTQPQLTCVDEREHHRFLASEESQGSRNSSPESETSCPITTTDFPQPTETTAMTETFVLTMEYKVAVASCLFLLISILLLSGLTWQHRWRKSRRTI

HSA-IL-2-T3A/C125S-F42A/Y45A/L72G (SEQ ID NO: 126)
EC50 in the CTLL2 cell-based activity assay: 77 nM

HSA-IL-2-T3A/C125S-R38S/F42A/Y45A/E62A (SEQ ID NO: 127)
EC50 in the CTLL2 cell-based activity assay: 76 nM

IgG1FC (with LALA and Knob)-IL-2-T3A/C125S-R38S/F42A/Y45A/A73T (SEQ ID NO: 135) paired with Fc hole (SEQ ID NO: 194) (from UniProt P0DOX5 223-449) (Fc fusion)
EC50 in the CTLL2 cell-based activity assay: 60 nM

IgG1FC (with LALA and Knob)-IL-2-T3A/C125S-R38S/F42A/Y45A/E62A (SEQ ID NO: 132) paired with Fc hole (SEQ ID NO: 194) (from UniProt P0DOX5 223-449) (Fc fusion)
EC50 in the CTLL2 cell-based activity assay: 60 nM
